Test results published in article PMC2959088, “Molecular determinants of improved cathepsin B inhibition by new cystatins obtained by DNA shuffling” (BMC Structural Biology, 2010).

Biological target: T1, human cathepsin L (human)
T1 construct: cathepsin L, human, bought from Calbiochem; active enzyme used at 0.3 nM; source: bought: Calbiochem
Experiment: enzyme inhibition assay (residual activity on the fluorogenic substrate Z-Phe-Arg-MCA); cathepsin B or L (0.3 nM) incubated 5 min at 37°C with varied inhibitor in 100 mM sodium acetate pH 5.5, 2.5 mM DTT; substrate 0.01 mM; triplicate; Ki(app) by non linear regression (GraFit), Ki by Morrison's procedure
Settings: both partners purified

- Ki: 5.66 nM
B1: Oryzacystatin-1 N-terminal deletion (NΔ) (natural protein)
chain: MSSDGGPVGNENDLHLVDLARFAVTEHNKKANSLLEFEKLVSVKQQVVAGTLYYFTIEVKEGDAKKLYEAKVWEKPWMDFKELQEFKPVDASANA
